{
  "source": "patent EP1852441B1",
  "about": "(The Burnham Institute, dated 2004)",
  "key": {"[1]": {"target": "T1, histidine-tagged mouse EphA2 Fc fusion protein (mouse, UniProt Q03145 26-535, limits assumed)", "T1 construct": "Bought; also called Eph2 Fc; not shown: Fc region; histidine tag", "T1 sequence (Q03145 26-535 limits assumed)": "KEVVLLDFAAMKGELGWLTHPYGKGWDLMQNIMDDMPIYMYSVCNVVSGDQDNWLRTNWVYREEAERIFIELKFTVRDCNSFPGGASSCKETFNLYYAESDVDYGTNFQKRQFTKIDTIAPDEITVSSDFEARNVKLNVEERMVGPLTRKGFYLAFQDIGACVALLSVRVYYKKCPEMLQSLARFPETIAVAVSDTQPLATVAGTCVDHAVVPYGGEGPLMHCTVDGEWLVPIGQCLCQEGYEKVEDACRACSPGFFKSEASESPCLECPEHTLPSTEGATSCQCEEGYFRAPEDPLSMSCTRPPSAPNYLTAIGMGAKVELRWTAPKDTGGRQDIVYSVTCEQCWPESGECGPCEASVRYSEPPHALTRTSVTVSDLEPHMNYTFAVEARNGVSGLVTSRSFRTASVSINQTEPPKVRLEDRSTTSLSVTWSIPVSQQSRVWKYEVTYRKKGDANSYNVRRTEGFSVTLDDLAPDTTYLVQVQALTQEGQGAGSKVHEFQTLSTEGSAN", "experiment": "SPR (BIAcore 3000), EphA2 Fc coupled to the chip, equilibrium binding"}, "EphB4 Fc": {"target": "T2, EphB4 Fc", "T2 construct": "also called EpbB4", "T2 sequence (P54761 16-539)": "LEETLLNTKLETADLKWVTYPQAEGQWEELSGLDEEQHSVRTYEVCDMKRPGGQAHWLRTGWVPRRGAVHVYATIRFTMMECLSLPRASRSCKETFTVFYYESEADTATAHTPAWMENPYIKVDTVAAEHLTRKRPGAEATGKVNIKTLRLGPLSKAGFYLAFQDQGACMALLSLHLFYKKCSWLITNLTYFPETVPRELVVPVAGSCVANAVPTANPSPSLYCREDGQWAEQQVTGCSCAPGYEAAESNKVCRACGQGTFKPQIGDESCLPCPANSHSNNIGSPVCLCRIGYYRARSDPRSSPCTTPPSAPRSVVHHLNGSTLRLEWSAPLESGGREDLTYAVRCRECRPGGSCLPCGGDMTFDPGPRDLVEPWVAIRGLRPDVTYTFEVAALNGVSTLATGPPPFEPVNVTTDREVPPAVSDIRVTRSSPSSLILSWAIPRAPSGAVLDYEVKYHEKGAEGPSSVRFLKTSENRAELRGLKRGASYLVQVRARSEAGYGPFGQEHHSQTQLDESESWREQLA", "experiment": "immobilized biotinylated peptide capturing Eph receptor Fc"}},
  "note": "Where no end group is shown, it is not given here.",
  "data": [
    {"binder": "SWLAYPGAVSYRGSGSK (also: biotinylated (position not given here))", "note": "[synthetic SWL peptide (SWLAYPGAVSYR)]", "values": [
      {"measurement": "Kd", "setting": "[1]", "result": 678, "unit": "nM"}
    ]},
    {"binder": "DALNDWLLFRPWGSGSK (also: biotinylated (position not given here))", "note": "[synthetic DAL peptide (DALNDWLLFRPW)]", "values": [
      {"measurement": "fold more EphB4 bound than other EphB family receptors", "setting": "EphB4 Fc", "result": 4, "unit": "fold"}
    ]}
  ]
}
